This passage reports interaction score results from publication PMC10397247.

The target of one assay is T1, 4H908-bA.
T1 chain: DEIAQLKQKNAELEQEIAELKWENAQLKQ
In words: two-hybrid library CCNG1.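 Further: natural log of median RNA to DNA barcode read ratio; higher means stronger binding.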

For the next assay, the target named is T2, 4H72-bA.
T2 chain: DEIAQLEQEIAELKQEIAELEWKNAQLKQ
The assay is described as follows: two-hybrid library CCNG1.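 Further: natural log of median RNA to DNA barcode read ratio; higher means stronger binding.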

The target of another assay is T3, 4H883-bA.
T3 chain: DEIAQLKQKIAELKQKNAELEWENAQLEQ
In words: two-hybrid library CCNG1.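 Further: natural log of median RNA to DNA barcode read ratio; higher means stronger binding.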

The next assay concerns the target T4, 4H797-bA.
T4 chain: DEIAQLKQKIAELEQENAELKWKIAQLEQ
The assay is described as follows: two-hybrid library CCNG1.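 Further: natural log of median RNA to DNA barcode read ratio; higher means stronger binding.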

Another assay deals with T5, 4H918-bA.
T5 chain: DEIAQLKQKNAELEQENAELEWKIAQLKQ
In words: two-hybrid library CCNG1.

The target of another assay is T6, 4H967-bA.
T6 chain: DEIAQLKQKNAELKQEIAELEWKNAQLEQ
In words: two-hybrid library CCNG1.

Another assay deals with T7, 4H953-bA.
T7 chain: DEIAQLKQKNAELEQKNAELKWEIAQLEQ
The assay is described as follows: two-hybrid library CCNG1.

Another assay has as its target T8, 4H754-bA.
T8 chain: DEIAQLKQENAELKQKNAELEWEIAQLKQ
In words: two-hybrid library CCNG1.

A further assay deals with T9, 4H971-AA.
T9 chain: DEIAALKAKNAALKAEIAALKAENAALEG
The assay is described as follows: two-hybrid library CCmax. The note with it: mean of both orientations.

The target in another assay is T10, 4H428-AA.
T10 chain: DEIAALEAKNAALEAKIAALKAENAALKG
In words: two-hybrid library CCmax. The conditions noted are these: mean of both orientations.

A further assay addresses T11, 4H391-AA.
T11 chain: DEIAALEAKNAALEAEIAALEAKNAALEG
In words: two-hybrid library CCmax.

The target in a further assay is T12, 4H656-AA.
T12 chain: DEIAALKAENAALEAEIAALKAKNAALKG
The assay is described as follows: two-hybrid library CCmax. The note with it: mean of both orientations.

A further assay addresses T13, 4H3920-AA.
T13 chain: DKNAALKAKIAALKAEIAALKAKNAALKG
The assay is described as follows: two-hybrid library CCmax. The conditions noted are these: mean of both orientations.

In a further assay the target is T14, 4H478-AA.
T14 chain: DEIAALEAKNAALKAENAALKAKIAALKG
The assay is described as follows: two-hybrid library CCmax. The conditions noted are these: mean of both orientations.

The target in a further assay is T15, 4H3939-AA.
T15 chain: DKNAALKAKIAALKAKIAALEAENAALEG
The assay is described as follows: two-hybrid library CCmax. The conditions noted are these: mean of both orientations.

The next assay addresses T16, 4H497-AA.
T16 chain: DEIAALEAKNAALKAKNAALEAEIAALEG
The assay is described as follows: two-hybrid library CCmax. The conditions noted are these: mean of both orientations.

The target in another assay is T17, 4H675-AA.
T17 chain: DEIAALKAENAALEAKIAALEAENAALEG
In words: two-hybrid library CCmax. The note with it: mean of both orientations.

The target of another assay is T18, 4H3753-AA.
T18 chain: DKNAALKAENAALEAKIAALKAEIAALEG
In words: two-hybrid library CCmax. The conditions noted are these: mean of both orientations.

The target of another assay is T19, 4H891-AA.
T19 chain: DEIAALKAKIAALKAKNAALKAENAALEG
In words: two-hybrid library CCmax. The conditions noted are these: mean of both orientations.

Another assay has as its target T20, 4H745-AA.
T20 chain: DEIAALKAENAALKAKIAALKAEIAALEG
In words: two-hybrid library CCmax. The note with it: mean of both orientations.

The target in the next assay is T21, 4H3130-AA.
T21 chain: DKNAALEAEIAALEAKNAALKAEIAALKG
In words: two-hybrid library CCmax. The conditions noted are these: mean of both orientations.

A further assay has as its target T22, 4H3865-AA.
T22 chain: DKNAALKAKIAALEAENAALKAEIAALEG
In words: two-hybrid library CCmax. The conditions noted are these: mean of both orientations.

The target of another assay is T23, 4H3697-AA.
T23 chain: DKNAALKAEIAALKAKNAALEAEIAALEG
In words: two-hybrid library CCmax. The conditions noted are these: mean of both orientations.

A further assay concerns the target T24, 4H94-AA.
T24 chain: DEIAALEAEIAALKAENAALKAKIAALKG
In words: two-hybrid library CCmax. The note with it: mean of both orientations.

A further assay has as its target T25, 4H710-AA.
T25 chain: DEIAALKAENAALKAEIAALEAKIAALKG
The assay is described as follows: two-hybrid library CCmax. The conditions noted are these: mean of both orientations.

The target in another assay is T26, 4H536-AA.
T26 chain: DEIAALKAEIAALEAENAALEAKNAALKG
In words: two-hybrid library CCmax. The conditions noted are these: mean of both orientations.

The target of a further assay is T27, 4H3410-AA.
T27 chain: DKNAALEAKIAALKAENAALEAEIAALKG
The assay is described as follows: two-hybrid library CCmax. The conditions noted are these: mean of both orientations.

The target in another assay is T28, 4H458-AA.
T28 chain: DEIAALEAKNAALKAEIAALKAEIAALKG
In words: two-hybrid library CCmax. The conditions noted are these: mean of both orientations.

The target of the next assay is T29, 4H629-AA.
T29 chain: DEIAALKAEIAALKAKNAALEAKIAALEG
The assay is described as follows: two-hybrid library CCmax. The conditions noted are these: mean of both orientations.

The target of another assay is T30, 4H3165-AA.
T30 chain: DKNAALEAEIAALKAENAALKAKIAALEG
In words: two-hybrid library CCmax. The conditions noted are these: mean of both orientations.

A further assay concerns the target T31, 4H3590-AA.
T31 chain: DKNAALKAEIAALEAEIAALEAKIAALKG
In words: two-hybrid library CCmax. The note with it: mean of both orientations.

The target in another assay is T32, 4H850-AA.
T32 chain: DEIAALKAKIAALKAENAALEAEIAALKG
In words: two-hybrid library CCmax. The note with it: mean of both orientations.

The target of another assay is T33, 4H570-AA.
T33 chain: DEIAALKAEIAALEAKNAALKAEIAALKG
In words: two-hybrid library CCmax. The conditions noted are these: mean of both orientations.

In a further assay the target is T34, 4H485-AA.
T34 chain: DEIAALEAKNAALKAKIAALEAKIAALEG
In words: two-hybrid library CCmax. The note with it: mean of both orientations.

Another assay addresses T35, 4H3395-AA.
T35 chain: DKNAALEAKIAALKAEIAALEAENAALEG
In words: two-hybrid library CCmax. The conditions noted are these: mean of both orientations.

The next assay has as its target T36, 4H909-AA.
T36 chain: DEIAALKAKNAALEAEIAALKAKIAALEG
The assay is described as follows: two-hybrid library CCmax. The note with it: mean of both orientations.

The next assay concerns the target T37, 4H3381-AA.
T37 chain: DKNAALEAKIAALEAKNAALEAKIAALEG
In words: two-hybrid library CCmax. The conditions noted are these: mean of both orientations.

The next assay concerns the target T38, 4H3120-AA.
T38 chain: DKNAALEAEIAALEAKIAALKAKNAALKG
The assay is described as follows: two-hybrid library CCmax.

The target of a further assay is T39, 4H797-AA.
T39 chain: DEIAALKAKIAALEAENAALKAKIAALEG
The assay is described as follows: two-hybrid library CCmax. The note with it: mean of both orientations.

The next assay concerns the target T40, 4H930-AA.
T40 chain: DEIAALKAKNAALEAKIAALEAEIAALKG
In words: two-hybrid library CCmax. The conditions noted are these: mean of both orientations.

For another assay, the target named is T41, 4H63-AA.
T41 chain: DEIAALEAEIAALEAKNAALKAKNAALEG
The assay is described as follows: two-hybrid library CCmax. The note with it: mean of both orientations.

In a further assay the target is T42, 4H3915-AA.
T42 chain: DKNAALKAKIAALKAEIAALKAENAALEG
In words: two-hybrid library CCmax.

A further assay addresses T43, 4H446-AA.
T43 chain: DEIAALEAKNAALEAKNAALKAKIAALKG
In words: two-hybrid library CCmax. The note with it: mean of both orientations.

In another assay the target is T44, 4H3974-AA.
T44 chain: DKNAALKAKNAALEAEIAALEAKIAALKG
The assay is described as follows: two-hybrid library CCmax. The note with it: mean of both orientations.

The target of a further assay is T45, 4H432-AA.
T45 chain: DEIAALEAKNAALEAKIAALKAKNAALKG
The assay is described as follows: two-hybrid library CCmax. The conditions noted are these: mean of both orientations.

The target of another assay is T46, 4H3718-AA.
T46 chain: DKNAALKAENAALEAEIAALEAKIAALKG
In words: two-hybrid library CCmax. The conditions noted are these: mean of both orientations.

The target of another assay is T47, 4H384-AA.
T47 chain: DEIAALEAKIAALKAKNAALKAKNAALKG
In words: two-hybrid library CCmax. The conditions noted are these: mean of both orientations.

A further assay addresses T48, 4H982-AA.
T48 chain: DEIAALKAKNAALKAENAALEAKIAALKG
In words: two-hybrid library CCmax. The conditions noted are these: mean of both orientations.

The next assay concerns the target T49, 4H3631-AA.
T49 chain: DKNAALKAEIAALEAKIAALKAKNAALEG
In words: two-hybrid library CCmax.

The next assay addresses T50, 4H697-AA.
T50 chain: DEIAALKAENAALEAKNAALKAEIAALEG
The assay is described as follows: two-hybrid library CCmax. The note with it: mean of both orientations.

Consider DEIAQLEQEIAELKQEIAELEWKNAQLKQ [4H72-bA], for which the interaction score in the assay with 4H908-bA is -0.464; in the assay with 4H72-bA, 0.83; with 4H883-bA, 1.05; with 4H797-bA it was -0.956; in the assay with 4H918-bA, -0.479; in the assay with 4H967-bA, -0.0446. The interaction score with 4H953-bA was -0.161; in the assay with 4H754-bA, -0.173.

DEIAALEAKNAALEAEIAALEAKNAALEG [4H391-AA]: the interaction score with 4H971-AA was -1.02; in the assay with 4H428-AA, -0.212; with 4H391-AA it was -1.79; in the assay with 4H656-AA, -0.583; in the assay with 4H3920-AA it was -1.23; with 4H478-AA it was -1.59. Further, the interaction score in the assay with 4H3939-AA was -1.7; in the assay with 4H497-AA, -2; in the assay with 4H675-AA, -1.11.

DKNAALEAEIAALEAKIAALKAKNAALKG [4H3120-AA]: the interaction score with 4H3753-AA is 0.619; with 4H891-AA, -0.991; in the assay with 4H745-AA, -1.09; with 4H3130-AA it was -0.632; with 4H3865-AA, -1.52; in the assay with 4H3697-AA, -1.39. Moreover, the interaction score is -1.07 in the assay with 4H94-AA; -1.56 in the assay with 4H710-AA; 1.51 with 4H536-AA; -1.25 with 4H3410-AA; -1.3 with 4H458-AA; -1.66 in the assay with 4H629-AA. Moreover, the interaction score with 4H3165-AA is -1.33; with 4H3590-AA, 1.08; in the assay with 4H850-AA, -0.918; with 4H570-AA it was -0.988; with 4H485-AA, -0.737; with 4H3395-AA, 2.17. For the same molecule, the interaction score is -1.58 in the assay with 4H909-AA; -1.79 with 4H3381-AA; 1.15 in the assay with 4H3120-AA; -1.9 with 4H797-AA; -1.5 with 4H930-AA.

For DKNAALKAKIAALKAEIAALKAENAALEG [4H3915-AA], the interaction score in the assay with 4H63-AA is 0.485; with 4H3915-AA it was -0.838; in the assay with 4H446-AA it was -1.7; with 4H3974-AA it was -0.146; with 4H432-AA, -1.16.

As to DKNAALKAEIAALEAKIAALKAKNAALEG [4H3631-AA], the interaction score with 4H3865-AA is -1.53; with 4H3718-AA it was 0.0628; in the assay with 4H3697-AA, -1.62; with 4H384-AA, -1.07; with 4H982-AA, -1.91; in the assay with 4H3631-AA it was 0.402. For the same molecule, the interaction score in the assay with 4H697-AA was -1.8.
